This is an account of results in US20190015483A1 (CSL BEHRING RECOMBINANT FACILITY, published 2019).

To fix the notation:
B1: Hu-vWF[764-1270]-8His S766W-L809M (other)
chain: SLWCRPPMVKLVCPADNLRAEGLECTKTCQNYDLECMSMGCVSGCMCPPGMVRHENRCVALERCPCFHQGKEYAPGETVKIGCNTCVCRDRKWNCTDHVCDATCSTIGMAHYLTFDGLKYLFPGECQYVLVQDYCGSNPGTFRILVGNKGCSHPSVKCKKRVTILVEGGEIELFDGEVNVKRPMKDETHFEVVESGRYIILLLGKALSVVWDRHLSISVVLKQTYQEKVCGLCGNFDGIQNNDLTSSNLQVEEDPVDFGNSWKVSSQCADTRKVPLDSSPATCHNNIMKQTMVDSSCRILTSDVFQDCNKLVDPEPYLDVCIYDTCSCESIGDCACFCDTIAAYAHVCAQHGKVVTWRTATLCPQSCEERNLRENGYECEWRYNSCAPACQVTCQHPEPLACPVQCVEGCHAHCPPGKILDELLQTCVDPEDCPVCEVAGRRFASGKKVTLNPSDPEHCQICHCDVVNLTCEACQEPGGLVVPPTDAPVSPTTLYVEDISEPPLHDFHHHHHHHH
B2: Hu-vWF[764-1270]-8His S766W-L809Q (other)
chain: SLWCRPPMVKLVCPADNLRAEGLECTKTCQNYDLECMSMGCVSGCQCPPGMVRHENRCVALERCPCFHQGKEYAPGETVKIGCNTCVCRDRKWNCTDHVCDATCSTIGMAHYLTFDGLKYLFPGECQYVLVQDYCGSNPGTFRILVGNKGCSHPSVKCKKRVTILVEGGEIELFDGEVNVKRPMKDETHFEVVESGRYIILLLGKALSVVWDRHLSISVVLKQTYQEKVCGLCGNFDGIQNNDLTSSNLQVEEDPVDFGNSWKVSSQCADTRKVPLDSSPATCHNNIMKQTMVDSSCRILTSDVFQDCNKLVDPEPYLDVCIYDTCSCESIGDCACFCDTIAAYAHVCAQHGKVVTWRTATLCPQSCEERNLRENGYECEWRYNSCAPACQVTCQHPEPLACPVQCVEGCHAHCPPGKILDELLQTCVDPEDCPVCEVAGRRFASGKKVTLNPSDPEHCQICHCDVVNLTCEACQEPGGLVVPPTDAPVSPTTLYVEDISEPPLHDFHHHHHHHH
B3: Hu-vWF[764-1270]-8His S766W-L809R (other)
chain: SLWCRPPMVKLVCPADNLRAEGLECTKTCQNYDLECMSMGCVSGCRCPPGMVRHENRCVALERCPCFHQGKEYAPGETVKIGCNTCVCRDRKWNCTDHVCDATCSTIGMAHYLTFDGLKYLFPGECQYVLVQDYCGSNPGTFRILVGNKGCSHPSVKCKKRVTILVEGGEIELFDGEVNVKRPMKDETHFEVVESGRYIILLLGKALSVVWDRHLSISVVLKQTYQEKVCGLCGNFDGIQNNDLTSSNLQVEEDPVDFGNSWKVSSQCADTRKVPLDSSPATCHNNIMKQTMVDSSCRILTSDVFQDCNKLVDPEPYLDVCIYDTCSCESIGDCACFCDTIAAYAHVCAQHGKVVTWRTATLCPQSCEERNLRENGYECEWRYNSCAPACQVTCQHPEPLACPVQCVEGCHAHCPPGKILDELLQTCVDPEDCPVCEVAGRRFASGKKVTLNPSDPEHCQICHCDVVNLTCEACQEPGGLVVPPTDAPVSPTTLYVEDISEPPLHDFHHHHHHHH
B4: Hu-vWF[764-1270]-8His S766W-L809P (other)
chain: SLWCRPPMVKLVCPADNLRAEGLECTKTCQNYDLECMSMGCVSGCPCPPGMVRHENRCVALERCPCFHQGKEYAPGETVKIGCNTCVCRDRKWNCTDHVCDATCSTIGMAHYLTFDGLKYLFPGECQYVLVQDYCGSNPGTFRILVGNKGCSHPSVKCKKRVTILVEGGEIELFDGEVNVKRPMKDETHFEVVESGRYIILLLGKALSVVWDRHLSISVVLKQTYQEKVCGLCGNFDGIQNNDLTSSNLQVEEDPVDFGNSWKVSSQCADTRKVPLDSSPATCHNNIMKQTMVDSSCRILTSDVFQDCNKLVDPEPYLDVCIYDTCSCESIGDCACFCDTIAAYAHVCAQHGKVVTWRTATLCPQSCEERNLRENGYECEWRYNSCAPACQVTCQHPEPLACPVQCVEGCHAHCPPGKILDELLQTCVDPEDCPVCEVAGRRFASGKKVTLNPSDPEHCQICHCDVVNLTCEACQEPGGLVVPPTDAPVSPTTLYVEDISEPPLHDFHHHHHHHH
B5: Hu-vWF[764-1270]-8His S766W-L809S (other)
chain: SLWCRPPMVKLVCPADNLRAEGLECTKTCQNYDLECMSMGCVSGCSCPPGMVRHENRCVALERCPCFHQGKEYAPGETVKIGCNTCVCRDRKWNCTDHVCDATCSTIGMAHYLTFDGLKYLFPGECQYVLVQDYCGSNPGTFRILVGNKGCSHPSVKCKKRVTILVEGGEIELFDGEVNVKRPMKDETHFEVVESGRYIILLLGKALSVVWDRHLSISVVLKQTYQEKVCGLCGNFDGIQNNDLTSSNLQVEEDPVDFGNSWKVSSQCADTRKVPLDSSPATCHNNIMKQTMVDSSCRILTSDVFQDCNKLVDPEPYLDVCIYDTCSCESIGDCACFCDTIAAYAHVCAQHGKVVTWRTATLCPQSCEERNLRENGYECEWRYNSCAPACQVTCQHPEPLACPVQCVEGCHAHCPPGKILDELLQTCVDPEDCPVCEVAGRRFASGKKVTLNPSDPEHCQICHCDVVNLTCEACQEPGGLVVPPTDAPVSPTTLYVEDISEPPLHDFHHHHHHHH
B6: Hu-vWF[764-1270]-8His S766W-L809T (other)
chain: SLWCRPPMVKLVCPADNLRAEGLECTKTCQNYDLECMSMGCVSGCTCPPGMVRHENRCVALERCPCFHQGKEYAPGETVKIGCNTCVCRDRKWNCTDHVCDATCSTIGMAHYLTFDGLKYLFPGECQYVLVQDYCGSNPGTFRILVGNKGCSHPSVKCKKRVTILVEGGEIELFDGEVNVKRPMKDETHFEVVESGRYIILLLGKALSVVWDRHLSISVVLKQTYQEKVCGLCGNFDGIQNNDLTSSNLQVEEDPVDFGNSWKVSSQCADTRKVPLDSSPATCHNNIMKQTMVDSSCRILTSDVFQDCNKLVDPEPYLDVCIYDTCSCESIGDCACFCDTIAAYAHVCAQHGKVVTWRTATLCPQSCEERNLRENGYECEWRYNSCAPACQVTCQHPEPLACPVQCVEGCHAHCPPGKILDELLQTCVDPEDCPVCEVAGRRFASGKKVTLNPSDPEHCQICHCDVVNLTCEACQEPGGLVVPPTDAPVSPTTLYVEDISEPPLHDFHHHHHHHH
B7: Hu-vWF[764-1270]-8His S766W-L809N (other)
chain: SLWCRPPMVKLVCPADNLRAEGLECTKTCQNYDLECMSMGCVSGCNCPPGMVRHENRCVALERCPCFHQGKEYAPGETVKIGCNTCVCRDRKWNCTDHVCDATCSTIGMAHYLTFDGLKYLFPGECQYVLVQDYCGSNPGTFRILVGNKGCSHPSVKCKKRVTILVEGGEIELFDGEVNVKRPMKDETHFEVVESGRYIILLLGKALSVVWDRHLSISVVLKQTYQEKVCGLCGNFDGIQNNDLTSSNLQVEEDPVDFGNSWKVSSQCADTRKVPLDSSPATCHNNIMKQTMVDSSCRILTSDVFQDCNKLVDPEPYLDVCIYDTCSCESIGDCACFCDTIAAYAHVCAQHGKVVTWRTATLCPQSCEERNLRENGYECEWRYNSCAPACQVTCQHPEPLACPVQCVEGCHAHCPPGKILDELLQTCVDPEDCPVCEVAGRRFASGKKVTLNPSDPEHCQICHCDVVNLTCEACQEPGGLVVPPTDAPVSPTTLYVEDISEPPLHDFHHHHHHHH

The target of this assay is T1, recombinant Factor VIII (CSL627, rVIII-SingleChain) (Homo sapiens (Human), UniProt P00451 20-2351).
T1 construct: also called FVIII
T1 sequence: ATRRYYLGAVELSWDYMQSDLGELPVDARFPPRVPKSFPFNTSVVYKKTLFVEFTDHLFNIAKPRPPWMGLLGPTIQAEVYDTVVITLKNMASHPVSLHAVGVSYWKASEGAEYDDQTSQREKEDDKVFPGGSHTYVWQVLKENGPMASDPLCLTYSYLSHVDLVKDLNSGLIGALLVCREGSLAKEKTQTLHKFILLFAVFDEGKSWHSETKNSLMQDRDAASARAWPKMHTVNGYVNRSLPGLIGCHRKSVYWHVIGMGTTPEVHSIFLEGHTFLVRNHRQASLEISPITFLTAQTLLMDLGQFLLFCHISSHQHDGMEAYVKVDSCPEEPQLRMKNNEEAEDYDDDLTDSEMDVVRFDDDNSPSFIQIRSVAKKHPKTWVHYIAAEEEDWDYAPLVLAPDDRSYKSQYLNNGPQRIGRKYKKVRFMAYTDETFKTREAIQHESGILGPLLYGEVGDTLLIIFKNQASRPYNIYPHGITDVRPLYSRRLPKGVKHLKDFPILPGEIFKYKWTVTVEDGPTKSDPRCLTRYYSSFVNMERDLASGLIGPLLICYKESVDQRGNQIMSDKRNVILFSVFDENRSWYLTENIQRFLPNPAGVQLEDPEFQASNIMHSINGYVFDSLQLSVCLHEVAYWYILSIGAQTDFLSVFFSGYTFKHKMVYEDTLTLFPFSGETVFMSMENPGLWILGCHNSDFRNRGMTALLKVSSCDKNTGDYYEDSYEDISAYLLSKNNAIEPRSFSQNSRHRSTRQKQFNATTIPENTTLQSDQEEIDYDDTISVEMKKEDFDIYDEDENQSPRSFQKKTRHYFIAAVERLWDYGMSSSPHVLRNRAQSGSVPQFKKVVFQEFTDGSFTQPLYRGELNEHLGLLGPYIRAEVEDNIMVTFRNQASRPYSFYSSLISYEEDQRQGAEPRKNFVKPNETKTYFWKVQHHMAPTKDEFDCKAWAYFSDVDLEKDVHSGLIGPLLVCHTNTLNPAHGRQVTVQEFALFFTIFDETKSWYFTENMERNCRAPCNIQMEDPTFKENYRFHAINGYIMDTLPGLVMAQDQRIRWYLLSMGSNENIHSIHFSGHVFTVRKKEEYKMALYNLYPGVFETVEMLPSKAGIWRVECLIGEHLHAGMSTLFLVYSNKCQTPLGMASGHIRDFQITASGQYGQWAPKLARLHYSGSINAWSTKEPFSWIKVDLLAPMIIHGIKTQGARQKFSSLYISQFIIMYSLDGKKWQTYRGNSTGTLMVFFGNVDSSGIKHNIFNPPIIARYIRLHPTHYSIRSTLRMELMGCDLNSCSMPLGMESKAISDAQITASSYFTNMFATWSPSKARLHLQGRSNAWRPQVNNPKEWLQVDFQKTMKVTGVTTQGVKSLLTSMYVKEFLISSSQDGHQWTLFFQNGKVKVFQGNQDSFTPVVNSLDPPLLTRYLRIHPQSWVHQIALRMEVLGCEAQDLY
The experiment in a line: SPR, anti-His capture, FVIII injected, 37 C. The protocol: Binding kinetics were investigated by surface plasmon resonance using a Biacore 4000 biosensor at 37° C. Each mutant was captured from cell culture medium to a density of 40-150 RU on a CM-5 sensor chip pre-immobilised with anti-His antibody (14,000 RU). In an initial screening study, FVIII was injected over the captured mutants for 5 minutes at 1 nM and dissociation monitored for 5 minutes.
All sensorgrams were double referenced by subtraction of signals from a reference spot (containing only immobilised anti His antibody) and from a blank injection. Binding kinetics were determined by fitting the double referenced sensorgrams to a 1:1 kinetic model.
A general note: In SPR one partner is held on a chip, and binding of the other changes the refractive index at the surface.
As a reminder, the Kd is the concentration at which binding is half-saturated. The term koff denotes the first-order rate constant of dissociation. For orientation: kon means the rate constant with which the complex forms. On to B1, for which the Kd came to 0.117 nM, the koff was determined as 0.000581 s⁻¹ and the kon was 4.99e+06 M⁻¹ s⁻¹.

In the case of B2, the Kd was 0.212 nM, the koff worked out at 0.00113 s⁻¹ and the on-rate constant (kon) was determined as 5.33e+06 M⁻¹ s⁻¹.

Turning to B3, the equilibrium dissociation constant (Kd) was determined as 0.352 nM, the koff worked out at 0.00213 s⁻¹ and the kon is 6.07e+06 M⁻¹ s⁻¹.

Take B4: the binding result is “no binding”.

As to B5, the dissociation constant Kd came out at 0.22 nM, the koff is 0.00144 s⁻¹ and the kon came to 6.54e+06 M⁻¹ s⁻¹.

For B6, the dissociation constant (Kd) was 0.161 nM, the koff turned out to be 0.00141 s⁻¹ and the on-rate constant (kon) was 8.72e+06 M⁻¹ s⁻¹.

B7: the Kd amounted to 0.369 nM, the koff is 0.00227 s⁻¹ and the kon was determined as 6.15e+06 M⁻¹ s⁻¹.
